# What was measured:
# [1] = molecular target: recombinant SARS-CoV-2 spike receptor-binding domain (rRBD), Wuhan-Hu-1 isolate, residues 319-541 wi (SARS-CoV-2) (UniProt P0DTC2); assay: non-reducing SDS-PAGE with western blot
# [2] = molecular target: recombinant SARS-CoV-2 spike receptor-binding domain (rRBD), Wuhan-Hu-1 isolate, residues 319-541 wi (SARS-CoV-2) (UniProt P0DTC2); assay: non-reducing SDS-PAGE
# [3] = molecular target: recombinant SARS-CoV-2 spike receptor-binding domain (rRBD), Wuhan-Hu-1 isolate, residues 319-541 wi (SARS-CoV-2) (UniProt P0DTC2); assay: SEC
substance,measurement,setting,value
"recombinant SARS-CoV-2 spike receptor-binding domain (rRBD), Wuhan-Hu-1 isolate, residues 319-541 wi (from UniProt P0DTC2 319-541) (domain or fragment)",percent dimer of total rRBD (4 dpi),[1],17.9%
same,stoichiometry N,[1],2
same,stoichiometry N,[2],2
same,stoichiometry N,[3],2

# From publication PMC9785345
